From PMC9295147 (2022)

Tests used:
[1] = molecular target: T1, mExoS peptide (C-terminal region of exoenzyme S); assay: fluorescence polarisation
T1 chain: QGLLDALDLAS

[2] = molecular target: T2, dT14-3-3_PKB/CHK1, unphosphorylated (Tobacco | ); assay: FP
T2 chain: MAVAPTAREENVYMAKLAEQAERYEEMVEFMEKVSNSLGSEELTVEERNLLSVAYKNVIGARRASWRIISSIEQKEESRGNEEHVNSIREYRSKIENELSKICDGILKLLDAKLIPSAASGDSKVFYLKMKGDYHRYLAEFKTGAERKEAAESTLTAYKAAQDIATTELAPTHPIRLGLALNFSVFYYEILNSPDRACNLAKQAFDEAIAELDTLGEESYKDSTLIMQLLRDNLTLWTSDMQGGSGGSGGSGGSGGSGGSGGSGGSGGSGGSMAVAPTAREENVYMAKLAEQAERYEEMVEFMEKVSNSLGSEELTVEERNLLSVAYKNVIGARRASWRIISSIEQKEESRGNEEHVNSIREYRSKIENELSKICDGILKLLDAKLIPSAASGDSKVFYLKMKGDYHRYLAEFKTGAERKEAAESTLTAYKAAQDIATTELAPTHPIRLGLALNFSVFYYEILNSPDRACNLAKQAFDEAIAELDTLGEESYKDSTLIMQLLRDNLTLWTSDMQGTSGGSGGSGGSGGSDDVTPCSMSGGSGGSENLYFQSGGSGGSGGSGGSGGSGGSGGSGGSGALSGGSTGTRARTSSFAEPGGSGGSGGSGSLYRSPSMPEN

[3] = molecular target: T3, dT14-3-3_biPKB, unphosphorylated (Tobacco | ); assay: FP
T3 chain: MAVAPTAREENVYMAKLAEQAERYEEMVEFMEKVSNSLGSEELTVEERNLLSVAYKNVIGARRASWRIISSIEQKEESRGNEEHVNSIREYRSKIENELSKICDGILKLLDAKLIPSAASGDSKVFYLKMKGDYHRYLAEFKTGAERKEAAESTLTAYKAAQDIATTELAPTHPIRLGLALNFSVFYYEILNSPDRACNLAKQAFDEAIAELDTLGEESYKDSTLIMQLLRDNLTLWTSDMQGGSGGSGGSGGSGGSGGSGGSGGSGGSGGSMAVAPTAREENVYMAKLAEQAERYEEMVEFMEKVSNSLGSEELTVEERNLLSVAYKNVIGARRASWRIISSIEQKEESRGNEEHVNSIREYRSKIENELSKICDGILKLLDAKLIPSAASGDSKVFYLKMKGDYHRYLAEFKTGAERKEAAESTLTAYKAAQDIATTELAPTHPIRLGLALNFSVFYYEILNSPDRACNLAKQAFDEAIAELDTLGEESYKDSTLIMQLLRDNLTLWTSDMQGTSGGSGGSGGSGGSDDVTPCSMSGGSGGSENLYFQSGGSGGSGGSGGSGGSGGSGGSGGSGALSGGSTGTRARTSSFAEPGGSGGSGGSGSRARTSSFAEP

[4] = molecular target: T4, dimeric Tobacco 14-3-3 scaffold (Tobacco); assay: FP
T4 chain: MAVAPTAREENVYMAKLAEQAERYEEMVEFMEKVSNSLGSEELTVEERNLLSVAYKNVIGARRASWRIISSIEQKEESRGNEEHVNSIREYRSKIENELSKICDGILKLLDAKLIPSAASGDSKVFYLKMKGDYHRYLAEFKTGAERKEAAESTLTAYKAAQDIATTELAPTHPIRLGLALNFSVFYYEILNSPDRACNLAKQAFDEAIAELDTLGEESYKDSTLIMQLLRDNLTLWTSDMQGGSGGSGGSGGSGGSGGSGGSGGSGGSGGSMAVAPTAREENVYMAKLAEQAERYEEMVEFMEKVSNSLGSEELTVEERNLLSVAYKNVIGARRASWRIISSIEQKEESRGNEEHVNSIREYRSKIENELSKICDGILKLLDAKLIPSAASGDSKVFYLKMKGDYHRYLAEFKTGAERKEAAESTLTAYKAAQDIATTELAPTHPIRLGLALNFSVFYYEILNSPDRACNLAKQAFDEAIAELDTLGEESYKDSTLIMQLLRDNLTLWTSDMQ

[5] = molecular target: T5, dT14-3-3_PKA/CHK1, unphosphorylated (Tobacco | ); assay: FP
T5 chain: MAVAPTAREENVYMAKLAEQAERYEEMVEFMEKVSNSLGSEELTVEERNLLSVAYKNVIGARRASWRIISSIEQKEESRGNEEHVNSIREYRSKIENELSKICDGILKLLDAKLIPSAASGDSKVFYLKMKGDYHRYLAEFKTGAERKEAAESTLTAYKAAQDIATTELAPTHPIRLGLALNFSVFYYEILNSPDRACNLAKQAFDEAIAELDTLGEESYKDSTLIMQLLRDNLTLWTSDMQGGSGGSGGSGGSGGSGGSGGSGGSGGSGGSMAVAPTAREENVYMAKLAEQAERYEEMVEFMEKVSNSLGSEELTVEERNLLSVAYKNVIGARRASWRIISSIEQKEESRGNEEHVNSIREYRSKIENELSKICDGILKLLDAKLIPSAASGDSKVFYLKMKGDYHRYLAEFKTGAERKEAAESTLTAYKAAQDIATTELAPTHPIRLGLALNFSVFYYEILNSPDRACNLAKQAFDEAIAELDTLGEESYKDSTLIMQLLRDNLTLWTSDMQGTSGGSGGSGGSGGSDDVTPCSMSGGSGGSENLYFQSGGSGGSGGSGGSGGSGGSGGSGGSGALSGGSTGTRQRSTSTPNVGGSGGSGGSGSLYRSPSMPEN

[6] = molecular target: T6, dT14-3-3_PKA/PKB, unphosphorylated (Tobacco | ); assay: FP
T6 chain: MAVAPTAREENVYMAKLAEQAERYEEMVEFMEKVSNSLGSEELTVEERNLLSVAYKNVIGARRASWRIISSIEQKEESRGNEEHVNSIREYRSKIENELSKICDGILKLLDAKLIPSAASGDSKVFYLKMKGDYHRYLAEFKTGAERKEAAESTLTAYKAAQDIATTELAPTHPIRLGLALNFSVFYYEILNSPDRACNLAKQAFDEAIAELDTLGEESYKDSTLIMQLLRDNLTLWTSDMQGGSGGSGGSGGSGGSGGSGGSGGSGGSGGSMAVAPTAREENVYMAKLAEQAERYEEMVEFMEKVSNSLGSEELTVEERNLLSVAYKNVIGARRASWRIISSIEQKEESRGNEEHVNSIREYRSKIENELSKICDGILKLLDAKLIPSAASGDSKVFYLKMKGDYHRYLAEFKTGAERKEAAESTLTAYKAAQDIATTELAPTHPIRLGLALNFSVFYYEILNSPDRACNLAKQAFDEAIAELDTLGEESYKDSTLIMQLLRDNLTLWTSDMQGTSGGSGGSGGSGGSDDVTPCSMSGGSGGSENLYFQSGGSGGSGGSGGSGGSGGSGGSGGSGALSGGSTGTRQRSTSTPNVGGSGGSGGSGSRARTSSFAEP

[7] = molecular target: T7, dT14-3-3_biPKA, unphosphorylated (Tobacco | ); assay: FP
T7 chain: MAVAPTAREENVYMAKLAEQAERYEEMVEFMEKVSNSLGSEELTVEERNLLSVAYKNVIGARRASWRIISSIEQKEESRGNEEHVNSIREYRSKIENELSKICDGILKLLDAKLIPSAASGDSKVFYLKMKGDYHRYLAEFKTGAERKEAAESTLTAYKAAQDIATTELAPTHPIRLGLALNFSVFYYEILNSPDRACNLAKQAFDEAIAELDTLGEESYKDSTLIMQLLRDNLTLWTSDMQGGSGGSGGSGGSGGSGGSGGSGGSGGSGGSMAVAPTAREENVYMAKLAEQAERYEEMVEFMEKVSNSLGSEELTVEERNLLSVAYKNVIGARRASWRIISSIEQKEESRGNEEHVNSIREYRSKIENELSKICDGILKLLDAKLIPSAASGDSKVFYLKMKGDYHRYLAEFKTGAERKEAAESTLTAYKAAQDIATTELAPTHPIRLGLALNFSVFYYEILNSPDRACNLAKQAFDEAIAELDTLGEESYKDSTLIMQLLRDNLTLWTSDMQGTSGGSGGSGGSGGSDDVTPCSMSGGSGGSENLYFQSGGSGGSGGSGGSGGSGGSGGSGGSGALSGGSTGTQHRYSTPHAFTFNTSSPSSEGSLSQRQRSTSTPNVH

[8] = molecular target: T8, dT14-3-3_biCHK1, unphosphorylated (Tobacco | ); assay: FP
T8 chain: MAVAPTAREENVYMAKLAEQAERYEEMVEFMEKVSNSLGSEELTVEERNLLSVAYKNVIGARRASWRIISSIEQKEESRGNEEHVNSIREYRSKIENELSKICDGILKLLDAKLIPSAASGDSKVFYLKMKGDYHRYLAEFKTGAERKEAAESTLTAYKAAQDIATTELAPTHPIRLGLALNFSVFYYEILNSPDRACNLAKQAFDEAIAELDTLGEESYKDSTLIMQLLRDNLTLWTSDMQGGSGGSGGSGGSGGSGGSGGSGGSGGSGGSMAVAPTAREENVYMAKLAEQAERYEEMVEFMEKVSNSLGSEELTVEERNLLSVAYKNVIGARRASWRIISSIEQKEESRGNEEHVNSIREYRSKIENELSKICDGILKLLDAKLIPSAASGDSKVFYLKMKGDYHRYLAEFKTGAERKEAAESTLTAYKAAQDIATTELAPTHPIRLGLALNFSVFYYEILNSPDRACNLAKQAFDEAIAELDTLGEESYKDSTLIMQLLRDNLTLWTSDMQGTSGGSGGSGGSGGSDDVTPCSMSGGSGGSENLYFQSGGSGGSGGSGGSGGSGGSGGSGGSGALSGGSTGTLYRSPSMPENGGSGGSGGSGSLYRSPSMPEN

B1: dT14-3-3_biPKB, phosphorylated by PKB (protein)
chain: MAVAPTAREENVYMAKLAEQAERYEEMVEFMEKVSNSLGSEELTVEERNLLSVAYKNVIGARRASWRIISSIEQKEESRGNEEHVNSIREYRSKIENELSKICDGILKLLDAKLIPSAASGDSKVFYLKMKGDYHRYLAEFKTGAERKEAAESTLTAYKAAQDIATTELAPTHPIRLGLALNFSVFYYEILNSPDRACNLAKQAFDEAIAELDTLGEESYKDSTLIMQLLRDNLTLWTSDMQGGSGGSGGSGGSGGSGGSGGSGGSGGSGGSMAVAPTAREENVYMAKLAEQAERYEEMVEFMEKVSNSLGSEELTVEERNLLSVAYKNVIGARRASWRIISSIEQKEESRGNEEHVNSIREYRSKIENELSKICDGILKLLDAKLIPSAASGDSKVFYLKMKGDYHRYLAEFKTGAERKEAAESTLTAYKAAQDIATTELAPTHPIRLGLALNFSVFYYEILNSPDRACNLAKQAFDEAIAELDTLGEESYKDSTLIMQLLRDNLTLWTSDMQGTSGGSGGSGGSGGSDDVTPCSMSGGSGGSENLYFQSGGSGGSGGSGGSGGSGGSGGSGGSGALSGGSTGTRARTSSFAEPGGSGGSGGSGSRARTSSFAEP
modifications: not checked
Binder B1 has a fold decrease in binding affinity relative to the unphosphorylated state [1] of 10 fold.

B2: dT14-3-3_biPKA, phosphorylated by PKA (protein)
chain: MAVAPTAREENVYMAKLAEQAERYEEMVEFMEKVSNSLGSEELTVEERNLLSVAYKNVIGARRASWRIISSIEQKEESRGNEEHVNSIREYRSKIENELSKICDGILKLLDAKLIPSAASGDSKVFYLKMKGDYHRYLAEFKTGAERKEAAESTLTAYKAAQDIATTELAPTHPIRLGLALNFSVFYYEILNSPDRACNLAKQAFDEAIAELDTLGEESYKDSTLIMQLLRDNLTLWTSDMQGGSGGSGGSGGSGGSGGSGGSGGSGGSGGSMAVAPTAREENVYMAKLAEQAERYEEMVEFMEKVSNSLGSEELTVEERNLLSVAYKNVIGARRASWRIISSIEQKEESRGNEEHVNSIREYRSKIENELSKICDGILKLLDAKLIPSAASGDSKVFYLKMKGDYHRYLAEFKTGAERKEAAESTLTAYKAAQDIATTELAPTHPIRLGLALNFSVFYYEILNSPDRACNLAKQAFDEAIAELDTLGEESYKDSTLIMQLLRDNLTLWTSDMQGTSGGSGGSGGSGGSDDVTPCSMSGGSGGSENLYFQSGGSGGSGGSGGSGGSGGSGGSGGSGALSGGSTGTQHRYSTPHAFTFNTSSPSSEGSLSQRQRSTSTPNVH
modifications: not checked
With B2 the fold decrease in binding affinity relative to the unphosphorylated state [1] was 35 fold.

Binder QGLLDALDLAS [mExoS peptide (C-terminal region of exoenzyme S)] has a Kd [2] of 6.62 µM, a Kd [3] of 6.91 µM and a Kd [4] of 9.69 µM. It also gave a Kd [5] of 6.64 µM, a Kd [6] of 6.43 µM and a Kd [7] of 5.77 µM. The Kd [8] was 7.57 µM.
